Experimental data published in patent US20160102139A1 (NATIONAL UNIVERSITY CORPORATION CHIBA UNIVERSITY, published 2016).
Changes are numbered by the printed parent chain.

T1: mouse Myl9 (myosin regulatory light chain polypeptide 9) (mouse, UniProt Q9CQ19 2-172)
T1 construct: Native protein in mouse bone marrow extract (BM lysate) or mouse tissues; also called Myl9/12
T1 sequence: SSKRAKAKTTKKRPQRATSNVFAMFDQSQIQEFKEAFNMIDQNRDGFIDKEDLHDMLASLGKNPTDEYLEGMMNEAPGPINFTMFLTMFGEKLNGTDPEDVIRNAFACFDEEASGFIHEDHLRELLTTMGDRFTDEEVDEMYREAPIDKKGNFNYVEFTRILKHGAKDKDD

T2: mouse Myl12b (myosin regulatory light chain polypeptide 12b) (mouse, UniProt Q3THE2 1-172, limits assumed)
T2 construct: Native protein in mouse bone marrow extract (BM lysate) or mouse tissues; also called Myl9/12
T2 sequence: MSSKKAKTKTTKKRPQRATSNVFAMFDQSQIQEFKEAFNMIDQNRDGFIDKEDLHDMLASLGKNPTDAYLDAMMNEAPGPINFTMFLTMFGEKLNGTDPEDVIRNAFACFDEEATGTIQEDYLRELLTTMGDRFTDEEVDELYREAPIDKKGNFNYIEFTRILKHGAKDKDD

B1: mouse Myl12a (myosin regulatory light chain polypeptide 12a) (ligand)
chain: T2 sequence with K5R, L61M, A68E, T115I
notes: Native protein in mouse bone marrow extract (BM lysate) or mouse tissues; also called Myl9/12
B2: 3xFlag mCD69EC treated with the deglycosylation enzyme PNGase F (receptor, mouse, UniProt P37217 62-199, looked up)
chain: NVGKYNCPGLYEKLESSDHHVATCKNEWISYKRTCYFFSTTTKSWALAQRSCSEDAATLAVIDSEKDMTFLKRYSGELEHWIGLKNEANQTWKWANGKEFNSWFNLTGSGRCVSVNHKNVTAVDCEANFHWVCSKPSR
modifications: N-glycans removed by PNGase F (500 U per 1 ug protein)
notes: extracellular domain; Same polypeptide as m2, after deglycosylation with N-glycosidase PNGase F; also called CD69EC previously treated with PNGase F; deglycosylated 3xFLAG mCD69EC; not shown: N-terminal 3xFlag tag from vector p3xFLAG CMV-9
B3: mouse CD69 extracellular domain protein having 3xFlag-tag added thereto (3xFlag mCD69EC) (receptor, UniProt P37217 62-199, looked up)
chain: B2 chain
notes: extracellular domain; also called mCD69EC protein; not shown: N-terminal 3xFlag tag from vector p3xFLAG CMV-9

Assays:
Assay in all cases: immunoprecipitation with anti-Flag M2 antibody from bone marrow extract, immunoblot with anti-Myl9/12 antibody
[1] = biological target: B3
Protocol: (§1) Then, whether the binding of Myl9, Myl12a, and Myl12b with CD69 actually occurred was investigated. Firstly, mCD69EC sequence was inserted to p3xFLAG CMV-9 (Sigma-Aldrich Co. LLC.) having Flag tag incorporated at the N-terminal to produce an expression vector of mCD69EC sequence having Flag-Tag added at the N-terminal. The expression vector was transformed to 293 T cells to overexpress 3xFlag mCD69EC, and then a cell extract was prepared. As a control, a cell extract was prepared from 293 T cells overexpressing 3xFlag peptide. 3xFlag mCD69EC protein or 3xFlag peptide was purified from the cell extract using anti-[…] (SEQ ID NO: 21) tag antibody beads (Wako Pure Chemical Industries, Ltd.). In this case, […] is a peptide represented by a single letter code for an amino acid. Those purified proteins were each subjected to a reaction with a bone marrow extract (BM lysate) in the same manner as described above and the resultant products were subjected to immunoprecipitation using anti-Flag M2 antibody (Sigma-Aldrich Co. LLC.) and protein-G (GE Healthcare). After the immunoprecipitation was performed, the precipitates were separated by SDS-PAGE and transferred to a polyvinylidene difluoride (PVDF) membrane (Bio-Rad Laboratories, Inc.). Subsequently, immunoblotting was performed using an antibody which recognized Myl9, Myl12a, and Myl12b (hereinafter referred to as anti-Myl9/12 antibody). That is, each protein was detected by ChemiDocXRS+ (Bio-Rad Laboratories, Inc.) with ECL detection reagents (GE Healthcare) using rabbit anti-Myl9 antibody (Abcam plc.) as a primary antibody and horseradish peroxidase (HRP)-labeled anti-rabbit IgG antibody (Cell Signaling Technology, Inc.) as a secondary antibody. Deglycosylation treatment of the mCD69EC protein was performed by adding 500 U of N-glycosidase PNGase F (New England Biolabs Ltd.) to 1 μg of 3xFLAG mCD69EC.

[2] = biological target: B2
Protocol: as §1

[3] = biological target: T1, mouse Myl9 (myosin regulatory light …)
Protocol: as §1

[4] = biological target: T2, mouse Myl12b (myosin regulatory light …)
Protocol: as §1

Row | binding result [1] | binding result [2] | binding result [3] | binding result [4] | Binder
1 | binds | binds | – | – | B1
2 | – | – | binds | binds | B2
3 | – | – | binds | binds | B3
